Numbering of substitutions follows the chain as printed.
T1: recombinant purified human IL-12 p70 (human, UniProt P29459 23-219)
T1 construct: Disulfide-linked heterodimer of p35 and p40; also called hIL-12; Hu IL-12
T1 sequence 1: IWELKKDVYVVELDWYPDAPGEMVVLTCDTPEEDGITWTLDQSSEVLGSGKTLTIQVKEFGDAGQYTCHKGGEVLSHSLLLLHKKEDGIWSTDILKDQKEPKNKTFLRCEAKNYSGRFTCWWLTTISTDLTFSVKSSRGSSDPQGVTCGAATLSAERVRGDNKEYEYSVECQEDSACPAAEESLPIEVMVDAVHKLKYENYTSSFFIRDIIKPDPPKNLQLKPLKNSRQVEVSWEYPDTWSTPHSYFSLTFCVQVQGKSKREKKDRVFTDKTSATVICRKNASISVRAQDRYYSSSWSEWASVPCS
T1 sequence 2: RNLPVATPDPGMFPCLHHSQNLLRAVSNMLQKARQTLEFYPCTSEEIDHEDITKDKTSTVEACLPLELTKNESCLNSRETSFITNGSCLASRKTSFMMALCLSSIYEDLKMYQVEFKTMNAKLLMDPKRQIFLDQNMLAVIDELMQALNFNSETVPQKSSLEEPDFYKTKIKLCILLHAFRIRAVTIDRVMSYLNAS

T2: recombinant purified cyno IL-12 p70 (cynomolgus monkey)
T2 chain 1: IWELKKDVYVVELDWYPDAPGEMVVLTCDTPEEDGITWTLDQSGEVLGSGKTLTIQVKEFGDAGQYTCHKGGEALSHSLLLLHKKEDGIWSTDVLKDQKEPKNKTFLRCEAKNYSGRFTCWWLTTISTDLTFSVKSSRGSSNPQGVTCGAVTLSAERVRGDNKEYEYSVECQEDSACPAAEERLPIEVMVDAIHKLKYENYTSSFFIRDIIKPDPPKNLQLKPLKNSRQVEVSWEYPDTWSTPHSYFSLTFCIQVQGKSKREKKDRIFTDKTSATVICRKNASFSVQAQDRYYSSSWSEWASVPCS
T2 chain 2: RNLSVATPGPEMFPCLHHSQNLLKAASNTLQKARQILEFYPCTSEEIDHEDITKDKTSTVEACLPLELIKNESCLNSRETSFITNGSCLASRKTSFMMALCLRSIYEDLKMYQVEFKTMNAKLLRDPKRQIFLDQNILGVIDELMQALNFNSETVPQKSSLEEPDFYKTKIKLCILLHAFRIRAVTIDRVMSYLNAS

B1: CDR grafted anti IL-12p40 antibody 1D4.1 (antibody, human IgG1, kappa, L234A L235A, V domains shown)
VH: EVTLRESGPALVKPTQTLTLTCTFSGFSLSKSVMGVSWIRQPPGKALEWLAHIYWDDDKYYNPSLKSRLTISKDTSKNQVVLTMTNMDPVDTATYYCARRGIRSAMDYWGQGTTVTVSS
VL: DIVMTQSPDSLAVSLGERATINCKASQSVSNDVAWYQQKPGQPPKLLIYYASNRYTGVPDRFSGSGSGTDFTLTISSLQAEDVAVYYCQQDYNSPWTFGGGTKVEIKR
notes: Full-length CDR-grafted antibody, COS cells
B2: CDR grafted anti IL-12p40 antibody 1D4.2 (antibody, human IgG1, kappa, L234A L235A, V domains shown)
VH: B1 VH with R5K, A10V, Q16E, F24V, N78S
VL: EIVMTQSPATLSVSPGERATLSCKASQSVSNDVAWYQQKPGQAPRLLIYYASNRYTGIPARFSGSGSGTEFTLTISSLQSEDFAVYYCQQDYNSPWTFGGGTKVEIKR
notes: as for B1
B3: CDR grafted anti IL-12p40 antibody 3G7.1 (antibody, human IgG1, kappa, L234A L235A, V domains shown)
VH: EVQLVQSGAEVKKPGSSVKVSCKASGGTFSDYWIEWVRQAPGQGLEWMGGFSHGSGSTNYNEKFKGRVTITADKSTSTAYMELSSLRSEDTAVYYCARRRFRGMDYWGQGTTVTVSS
VL: B1 VL with N93S, T97S
notes: as for B1
B4: CDR grafted anti IL-12p40 antibody 1A6.1 (antibody, human IgG1, kappa, L234A L235A, V domains shown)
VH: EVTLRESGPALVKPTQTLTLTCTFSGFSLSTSGMGVSWIRQPPGKALEWLAHIWWDGDNYYNPSLKSRLTISKDTSKNQVVLTMTNMDPVDTATYYCARRTRVNYAMDYWGQGTTVTVSS
VL: B1 VL
notes: as for B1
B5: CDR grafted anti IL-12p40 antibody 1D4.3 (antibody, human IgG1, kappa, L234A L235A, V domains shown)
VH: B1 VH
VL: B2 VL
notes: as for B1
B6: CDR grafted anti IL-12p40 antibody 1A6.6 (antibody, human IgG1, kappa, L234A L235A, V domains shown)
VH: B4 VH with R5K, A10V, Q16E, F24V, N78S
VL: B1 VL
notes: as for B1
B7: CDR grafted anti IL-12p40 antibody 8E1.1 (antibody, human IgG1, kappa, L234A L235A, V domains shown)
VH: EVQLVESGGGLVQPGGSLRLSCAASGFTFSDYGMVWVRQAPGKGLEWVGSISSGSSNIYYADTVKGRFTISRDDSKNSLYLQMNSLKTEDTAVYYCARNPYWGQGTTVTVSS
VL: DIQMTQSPSSLSASVGDRVTITCKASQNVGTNVAWYQQKPEKAPKSLIYSASHRYSGVPSRFSGSGSGTDFTLTISSLQPEDFATYYCQQYNSYPLTFGGGTKVEIKR
notes: as for B1
B8: CDR grafted anti IL-12p40 antibody 1A6.2 (antibody, human IgG1, kappa, L234A L235A, V domains shown)
VH: B4 VH with R5K, A10V, Q16E, F24V, N78S
VL: B2 VL
notes: as for B1
B9: CDR grafted anti IL-12p40 antibody 3G7.2 (antibody, human IgG1, kappa, L234A L235A, V domains shown)
VH: B3 VH with S16A, G27Y, S30T, I70M, A72T, K74T, S84R, E89D
VL: B2 VL with N93S, T97S
notes: as for B1
B10: CDR grafted anti IL-12p40 antibody 1A6.5 (antibody, human IgG1, kappa, L234A L235A, V domains shown)
VH: B4 VH
VL: B2 VL
notes: as for B1

How the values were obtained:
[1] = target: T1, recombinant purified human IL-12 p70; experiment: SPR (Biacore) as in Example 1.1.B, human IL-12p70
Method: Approximately 5000 RU of goat anti-mouse IgG, (Fcγ), fragment specific polyclonal antibody (Pierce Biotechnology Inc, Rockford, Ill.) diluted in 10 mM sodium acetate (pH 4.5) was directly immobilized across a CM5 research grade biosensor chip using a standard amine coupling kit according to manufacturer's instructions and procedures at 25 μg/ml. Unreacted moieties on the biosensor surface were blocked with ethanolamine. Modified carboxymethyl dextran surface in flowcell 2 and 4 was used as a reaction surface. Unmodified carboxymethyl dextran without goat anti-mouse IgG in flow cell 1 and 3 was used as the reference surface. For kinetic analysis, rate equations derived from the 1:1 Langmuir binding model were fitted simultaneously to association and dissociation phases of all eight injections (using global fit analysis) with the use of Biaevaluation 4.0.1 software. Purified antibodies were diluted in HEPES-buffered saline for capture across goat anti-mouse IgG specific reaction surfaces. Mouse antibodies to be captured as a ligand (25 μg/ml) were injected over reaction matrices at a flow rate of 5 μl/min. The association and dissociation rate constants, kₒₙ (unit M⁻¹ s⁻¹) and koff (unit s⁻¹) were determined under a continuous flow rate of 25 μl/min. Rate constants were derived by making kinetic binding measurements at ten different antigen concentrations ranging from 10-200 nM. The equilibrium dissociation constant (unit M) of the reaction between mouse antibodies and recombinant purified human IL-12 p70 or recombinant purified human IL-12 p40 was then calculated from the kinetic rate constants by the following formula: KD=koff/kₒₙ. Binding is recorded as a function of time and kinetic rate constants are calculated. In this assay, on-rates as fast as 10⁶M⁻¹ s⁻¹ and off-rates as slow as 10⁻⁶ can be measured. […]

[2] = target: T1, recombinant purified human IL-12 p70; experiment: cell-based or functional assay
[3] = target: T2, recombinant purified cyno IL-12 p70; experiment: cell-based or functional assay

Binder | Kd [1] [nM] | koff [1] [s⁻¹] | kon [1] [M⁻¹ s⁻¹] | Av. IC50 (nM) Hu IL-12, PHA blast assay [2] [nM] | Av. IC50 (nM) Cyno IL-12, PHA blast assay [3] [nM]
B1 | 0.12 | 2.9e-05 | 260000 | 0.47 | 1.5
B2 | 1.7 | 0.00026 | 160000 | 3 | 3
B3 | 0.22 | 9.1e-05 | 420000 | 0.56 | 1.2
B4 | 0.27 | 2.9e-05 | 110000 | 0.48 | 0.57
B5 | 0.25 | 5.3e-05 | 210000 | 0.83 | 1.6
B6 |  |  |  | 0.59 | 0.14
B7 | 1.7 | 0.00087 | 520000 | 2.8 | 4.6
B8 | 0.54 | 5.4e-05 | 100000 | 1.1 | 0.84
B9 | 0.23 | 0.00014 | 610000 | 0.24 | 0.7
B10 | 0.43 | 5.6e-05 | 130000 | 1.9 | 1.1

— patent US20140178332A1 (published 2014)
